Like-named read-outs stand apart in the source and are kept apart here. Ends that are not written are not given here. * marks the point of attachment. Palmitoyl = CCCCCCCCCCCCCCCC(=O)*
How the values were obtained:
Test in all cases: cell-based or functional assay
human GIP receptor [1] = biological target: T1, human GIP receptor (human, UniProt P48546 22-466)
T1 sequence (looked up): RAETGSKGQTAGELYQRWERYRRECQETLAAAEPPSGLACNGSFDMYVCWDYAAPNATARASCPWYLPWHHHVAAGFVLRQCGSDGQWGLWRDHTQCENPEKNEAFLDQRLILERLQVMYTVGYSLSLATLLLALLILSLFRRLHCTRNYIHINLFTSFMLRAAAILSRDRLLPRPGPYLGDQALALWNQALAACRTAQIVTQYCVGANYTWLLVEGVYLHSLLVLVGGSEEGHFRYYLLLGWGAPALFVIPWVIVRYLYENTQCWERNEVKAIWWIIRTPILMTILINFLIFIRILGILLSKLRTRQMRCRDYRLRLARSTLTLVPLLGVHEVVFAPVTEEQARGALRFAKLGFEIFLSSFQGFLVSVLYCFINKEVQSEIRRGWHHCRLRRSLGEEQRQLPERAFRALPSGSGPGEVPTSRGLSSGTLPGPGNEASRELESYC

human GLP-2 receptor [2] = biological target: T2, human GLP-2 receptor (human, UniProt O95838 1-553)
T2 sequence (looked up): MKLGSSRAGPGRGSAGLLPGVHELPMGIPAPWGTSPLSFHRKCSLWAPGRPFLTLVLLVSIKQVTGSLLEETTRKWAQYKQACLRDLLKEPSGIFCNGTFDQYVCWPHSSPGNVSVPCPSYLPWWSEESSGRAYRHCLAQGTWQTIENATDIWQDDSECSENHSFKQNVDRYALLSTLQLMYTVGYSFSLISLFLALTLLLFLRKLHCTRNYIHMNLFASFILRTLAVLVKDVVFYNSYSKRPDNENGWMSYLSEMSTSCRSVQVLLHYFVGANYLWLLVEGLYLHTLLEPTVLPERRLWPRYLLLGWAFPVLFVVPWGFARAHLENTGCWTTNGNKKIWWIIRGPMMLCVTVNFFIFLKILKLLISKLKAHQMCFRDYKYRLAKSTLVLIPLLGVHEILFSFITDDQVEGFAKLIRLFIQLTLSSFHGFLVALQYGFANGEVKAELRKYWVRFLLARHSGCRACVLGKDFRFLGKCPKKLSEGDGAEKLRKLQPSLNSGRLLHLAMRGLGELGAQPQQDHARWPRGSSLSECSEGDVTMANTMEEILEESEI

human GIP receptor [3] = biological target: T1, human GIP receptor; remark: listed apart in the source
human GLP-2 receptor [4] = biological target: T2, human GLP-2 receptor; remark: listed apart in the source

| Binder | EC50 (cAMP) (human GIP receptor [1]) [nM] | Emax (10 µM), % of native GIP (human GIP receptor [1]) [%] | fold (EC50 vs native GIP) (human GIP receptor [1]) [fold] | logEC50 (cAMP) (human GIP receptor [1]) | EC50 (cAMP) (human GLP-2 receptor [2]) [nM] | Emax (10 µM), % of native GLP-2 (human GLP-2 receptor [2]) [%] | fold (EC50 vs native GLP-2) (human GLP-2 receptor [2]) [fold] | logEC50 (cAMP) (human GLP-2 receptor [2]) | Emax (1 µM), % of native GIP (human GIP receptor [1]) [%] | Emax (1 µM), % of native GLP-2 (human GLP-2 receptor [2]) [%] | EC50 (cAMP) (human GIP receptor [3]) [nM] | Emax (10 µM), % of native GIP (human GIP receptor [3]) [%] | logEC50 (cAMP) (human GIP receptor [3]) | fold (EC50 vs native GIP) (human GIP receptor [3]) [fold] | EC50 (cAMP) (human GLP-2 receptor [4]) [nM] | Emax (10 µM), % of native GLP-2 (human GLP-2 receptor [4]) [%] | fold (EC50 vs native GLP-2) (human GLP-2 receptor [4]) [fold] | logEC50 (cAMP) (human GLP-2 receptor [4]) |
| --- | --- | --- | --- | --- | --- | --- | --- | --- | --- | --- | --- | --- | --- | --- | --- | --- | --- | --- |
| HAEGTFISDYSTILDNLAARDFINWLIQTKGKK [GIP-GLP-2 co-agonist 10] | 5.4 | 100 | 61 | -8.27 | 22 | 77 | 18 | -7.66 |  |  |  |  |  |  |  |  |  |  |
| HAEGTFISDYSTILDNIHQQDFINWLIQTKITD [GIP-GLP-2 co-agonist 8] | 5.9 | 100 | 66 | -8.23 |  | 22 |  | > -5 |  |  |  |  |  |  |  |  |  |  |
| HAEGTFISDYSTILDNLAARDFINWLIQTKITDNDWKHNITQ [GIP-GLP-2 co-agonist 2] | 12 |  | 135 | -7.92 | 145 |  | 121 | -6.84 | 100 | 93 |  |  |  |  |  |  |  |  |
| HADGSFSDEMNTILDNLAARDFINWLIQTKITD (ligand) [human native GLP-2] | 56 | 22 |  | -7.25 |  |  |  |  |  |  | 56 | 22 | -7.25 |  |  |  |  |  |
| HAEGTFSDEYSTILDNLAARDFINWLIQTKITD [GIP-GLP-2 co-agonist 5] | 456 | 75 | 5120 | -6.34 | 6.2 | 91 | 5.2 | -8.21 |  |  |  |  |  |  |  |  |  |  |
| HADGTFSSDYSTILDNLAAK(Palmitoyl)DFINWLIQTKITD [GIP-GLP-2 co-agonist 21] |  |  |  |  |  |  |  |  |  |  | 34 | 94 | -7.47 | 381 | 6 | 75 | 5 | -8.22 |
| HVDGTFISDYSTILDNLAARDFINWLIQTKITD [GIP-GLP-2 co-agonist 12] | 1.1 | 96 | 12 | -8.96 | 25 | 81 | 21 | -7.6 |  |  |  |  |  |  |  |  |  |  |
| HADGTFIDDYSTILDNLAARDFINWLIQTKITD [GIP-GLP-2 co-agonist 14] | 2.4 | 94 | 27 | -8.63 | 11 | 90 | 9.2 | -7.97 |  |  |  |  |  |  |  |  |  |  |
| HAEGTFISDYSTILDNLAARDFINWLIQTKITD [GIP-GLP-2 co-agonist 1] | 30 |  | 337 | -7.53 | 98 |  | 82 | -7.01 | 100 | 93 |  |  |  |  |  |  |  |  |
| HADGTFISDYSTILDNLAARDFINWLIQTKGKK [GIP-GLP-2 co-agonist 19] | 0.25 | 93 |  | -9.6 |  | 91 |  |  |  |  |  |  |  |  |  |  |  |  |
| HGDGTFISDYSTILDNLAARDFINWLIQTKITD [GIP-GLP-2 co-agonist 11] | 3.2 | 95 | 36 | -8.5 | 24 | 87 | 20 | -7.62 |  |  |  |  |  |  |  |  |  |  |
| HADGTFISDYSTILDNLAARDFINWLIQTKIKD [GIP-GLP-2 co-agonist 17] | 0.4 | 95 | 4.5 | -9.39 | 25 | 88 | 21 | -7.61 |  |  |  |  |  |  |  |  |  |  |
| HADGTFSSDYSTILDNLAARDFINWLIQTKITD [GIP-GLP-2 co-agonist 13] | 12 | 91 | 135 | -7.92 | 11 | 99 | 9.2 | -7.95 |  |  |  |  |  |  |  |  |  |  |
| HADGTFISDYSTILDNLAARDFINWLIQTKITK [GIP-GLP-2 co-agonist 18] | 0.66 | 89 | 7.4 | -9.18 | 5.3 | 94 | 4.4 | -8.28 |  |  |  |  |  |  |  |  |  |  |
| HAEGTFISDMNTILDNLAARDFINWLIQTKITD [GIP-GLP-2 co-agonist 6] | 172 | 83 | 1930 | -6.77 | 60 | 70 | 50 | -7.22 |  |  |  |  |  |  |  |  |  |  |
| HADGTFISDYSTILDNLAARDFINWLIQTKGTD [GIP-GLP-2 co-agonist 16] | 0.6 | 95 | 6.7 | -9.22 | 82 | 74 | 68 | -7.06 |  |  |  |  |  |  |  |  |  |  |
| HADGTFISEYSTILDNLAARDFINWLIQTKITD [GIP-GLP-2 co-agonist 15] | 3.2 | 92 | 36 | -8.5 | 6.7 | 104 | 5.6 | -8.18 |  |  |  |  |  |  |  |  |  |  |
| HAEGSFISDYSTILDNLAARDFINWLIQTKITD [GIP-GLP-2 co-agonist 4] | 38 | 83 | 427 | -7.42 | 25 | 90 | 21 | -7.59 |  |  |  |  |  |  |  |  |  |  |
| HADGTFISDYSTILDNLAARDFINWLIQTKITD [GIP-GLP-2 co-agonist 3] | 0.11 | 100 | 1.2 | -9.97 | 21 | 100 | 18 | -7.67 |  |  |  |  |  |  |  |  |  |  |
| HADGTFSSDYSTILDNLAAKDFINWLIQTKITD [GIP-GLP-2 co-agonist 20] |  |  |  |  |  |  |  |  |  |  | 0.59 | 98 | -9.23 | 6.6 | 1.2 | 80 | 1 | -8.92 |
| HAEGTFISDYSIAMDKLAARDFINWLIQTKITD [GIP-GLP-2 co-agonist 7] | 26 | 92 | 292 | -7.59 | 351 | 78 | 293 | -6.45 |  |  |  |  |  |  |  |  |  |  |
| HAEGTFISDYSTILDNLAARDFVNWLLAQKITD [GIP-GLP-2 co-agonist 9] | 3.2 | 100 | 36 | -8.5 | 123 | 67 | 103 | -6.91 |  |  |  |  |  |  |  |  |  |  |

— patent US20200392198A1 (UNIVERSITY OF COPENHAGEN, published 2020)
